Experimental data: publication PMC3359377, “A Novel Tool for Studying Auxin-Metabolism: The Inhibition of Grapevine Indole-3-Acetic Acid-Amido Synthetases by a Reaction Intermediate Analogue” (PLoS ONE, 2012)

T1: GH3-1 (Vitis vinifera, UniProt F6H697)
T1 construct: gene GH3.1_2
T1 sequence (F6H697 1-598): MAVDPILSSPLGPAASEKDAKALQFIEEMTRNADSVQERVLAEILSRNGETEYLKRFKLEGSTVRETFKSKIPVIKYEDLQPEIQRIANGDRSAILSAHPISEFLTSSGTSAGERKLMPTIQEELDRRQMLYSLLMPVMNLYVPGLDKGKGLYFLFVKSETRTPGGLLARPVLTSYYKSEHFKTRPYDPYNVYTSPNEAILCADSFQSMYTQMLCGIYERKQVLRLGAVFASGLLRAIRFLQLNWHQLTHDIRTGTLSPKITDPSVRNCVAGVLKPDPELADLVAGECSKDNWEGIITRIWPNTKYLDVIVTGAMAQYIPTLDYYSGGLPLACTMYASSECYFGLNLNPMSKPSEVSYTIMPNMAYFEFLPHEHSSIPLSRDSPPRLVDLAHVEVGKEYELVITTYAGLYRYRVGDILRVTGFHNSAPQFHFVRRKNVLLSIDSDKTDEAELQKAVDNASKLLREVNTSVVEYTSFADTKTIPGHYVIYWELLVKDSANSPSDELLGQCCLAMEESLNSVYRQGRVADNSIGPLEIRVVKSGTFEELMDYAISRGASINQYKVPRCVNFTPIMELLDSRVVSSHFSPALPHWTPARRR

B1: GH3-1 (Vitis vinifera) (protein)
chain: T1 sequence (F6H697 1-598)

Legend:
[1] = biological target: T1, GH3-1; assay: IAA-Asp formation by LC-ESI-MS/MS with recombinant enzyme; Dixon plots; format: biochemical
[2] = substrate: O=C(O)Cc1c[nH]c2ccccc12; assay: Michaelis-Menten kinetics (Km), LC-ESI-MS/MS of IAA-Asp; format: biochemical, Vitis vinifera; details: MgATP catalytic site
[3] = substrate: Nc1ncnc2c1ncn2[C@@H]1O[C@H](COP(=O)(O)OP(=O)(O)OP(=O)(O)O)[C@@H](O)[C@H]1O; assay: as above; format: biochemical, Vitis vinifera; details: Mg2+ catalytic site

Molecule	Ki [1]	Km [2]	Vmax [2]	kcat [2]	Km [3]	Vmax [3]	kcat [3]
Nc1ncnc2c1ncn2[C@@H]1O[C@H](COP(=O)(O)OCCc2c[nH]c3ccccc23)[C@@H](O)[C@H]1O [AIEP, adenosine-5′-[2-(1H-indol-3-yl)ethyl]phosphate]	200 nM						
B1		21.1 ± 1.4 µM	0.384 µmol/min/mg	0.442 s⁻¹	13.2 ± 1.4 µM	0.261 µmol/min/mg	0.3 s⁻¹
